Assay: Flag IP, Ub blots after NMS-873 or CB-5083
Conditions: glycan lost; control: wild type

Protein | other: total and K48-linked ubiquitination
B7H3 (4IgB7H3, CD276): N91/104/309/322Q (protein) parent chain: MLRRRGSPGMGVHVGAALGALWFCLTGALEVQVPEDPVVALVGTDATLCCSFSPEPGFSLAQLNLIWQLTDTKQLVHSFAEGQDQGSAYANRTALFPDLLAQGNASLRLQRVRVADEGSFTCFVSIRDFGSAAVSLQVAAPYSKPSMTLEPNKDLRPGDTVTITCSSYQGYPEAEVFWQDGQGVPLTGNVTTSQMANEQGLFDVHSILRVVLGANGTYSCLVRNPVLQQDAHSSVTITPQRSPTGAVEVQVPEDPVVALVGTDATLRCSFSPEPGFSLAQLNLIWQLTDTKQLVHSFTEGRDQGSAYANRTALFPDLLAQGNASLRLQRVRVADEGSFTCFVSIRDFGSAAVSLQVAAPYSKPSMTLEPNKDLRPGDTVTITCSSYRGYPEAEVFWQDGQGVPLTGNVTTSQMANEQGLFDVHSVLRVVLGANGTYSCLVRNPVLQQDAHGSVTITGQPMTFPPEALWVTVGLSVCLIALLVALAFVCWRKIKQSCEEENAGAEDQDGEGEGSKTALQPLKHSDSKEDDGQEIA | increases
B7H3 (4IgB7H3, CD276): 8NQ (protein) parent chain: MLRRRGSPGMGVHVGAALGALWFCLTGALEVQVPEDPVVALVGTDATLCCSFSPEPGFSLAQLNLIWQLTDTKQLVHSFAEGQDQGSAYANRTALFPDLLAQGNASLRLQRVRVADEGSFTCFVSIRDFGSAAVSLQVAAPYSKPSMTLEPNKDLRPGDTVTITCSSYQGYPEAEVFWQDGQGVPLTGNVTTSQMANEQGLFDVHSILRVVLGANGTYSCLVRNPVLQQDAHSSVTITPQRSPTGAVEVQVPEDPVVALVGTDATLRCSFSPEPGFSLAQLNLIWQLTDTKQLVHSFTEGRDQGSAYANRTALFPDLLAQGNASLRLQRVRVADEGSFTCFVSIRDFGSAAVSLQVAAPYSKPSMTLEPNKDLRPGDTVTITCSSYRGYPEAEVFWQDGQGVPLTGNVTTSQMANEQGLFDVHSVLRVVLGANGTYSCLVRNPVLQQDAHGSVTITGQPMTFPPEALWVTVGLSVCLIALLVALAFVCWRKIKQSCEEENAGAEDQDGEGEGSKTALQPLKHSDSKEDDGQEIA | increases

Source: article PMC11997214
